Test results as given in article PMC10853779.

Target: T1, phosphorylated NarL (E. coli nitrate-responsive transcription regulator), wild type (E. coli K12), P0AF28
T1 chain: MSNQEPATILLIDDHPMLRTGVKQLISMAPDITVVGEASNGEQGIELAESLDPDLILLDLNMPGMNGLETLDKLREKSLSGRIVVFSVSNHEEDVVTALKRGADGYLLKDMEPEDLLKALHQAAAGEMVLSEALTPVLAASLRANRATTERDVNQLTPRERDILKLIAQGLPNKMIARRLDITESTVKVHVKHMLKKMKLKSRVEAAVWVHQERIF
Experiment: cryo-EM structure
Details: remark: other sources report otherwise

stoichiometry N: 2
B1: phosphorylated NarL (E. coli nitrate-responsive transcription regulator), wild type, P0AF28 1-216 (natural protein)
chain: T1 chain
